Data reported in article PMC4027165, “SAXS analysis of the tRNA-modifying enzyme complex MnmE/MnmG reveals a novel interaction mode and GTP-induced oligomerization” (Nucleic Acids Research, 2014).
“And” between values parts separate entries of the source, which are not always exact repeats. Equal entries are not always repeated.

Key:
[1] = molecular target: T1, MnmG from Escherichia coli, wild type (Escherichia coli, UniProt P0A6U3 1-629); assay: SAXS + SEC-MALS; MnmE-GDP-AlFx mixed in 2-fold molar excess with MnmG; SAXS with online HPLC; molecular weight from SAXS and SEC-MALS; settings: both partners purified
T1 construct: tRNA uridine 5-carboxymethylaminomethyl modification enzyme MnmG (formerly GidA), Escherichia coli; open reading frame cloned in a pET14b vector; Homodimer of 70-kDa subunits; also called GidA; MnmG wt
T1 sequence (looked up): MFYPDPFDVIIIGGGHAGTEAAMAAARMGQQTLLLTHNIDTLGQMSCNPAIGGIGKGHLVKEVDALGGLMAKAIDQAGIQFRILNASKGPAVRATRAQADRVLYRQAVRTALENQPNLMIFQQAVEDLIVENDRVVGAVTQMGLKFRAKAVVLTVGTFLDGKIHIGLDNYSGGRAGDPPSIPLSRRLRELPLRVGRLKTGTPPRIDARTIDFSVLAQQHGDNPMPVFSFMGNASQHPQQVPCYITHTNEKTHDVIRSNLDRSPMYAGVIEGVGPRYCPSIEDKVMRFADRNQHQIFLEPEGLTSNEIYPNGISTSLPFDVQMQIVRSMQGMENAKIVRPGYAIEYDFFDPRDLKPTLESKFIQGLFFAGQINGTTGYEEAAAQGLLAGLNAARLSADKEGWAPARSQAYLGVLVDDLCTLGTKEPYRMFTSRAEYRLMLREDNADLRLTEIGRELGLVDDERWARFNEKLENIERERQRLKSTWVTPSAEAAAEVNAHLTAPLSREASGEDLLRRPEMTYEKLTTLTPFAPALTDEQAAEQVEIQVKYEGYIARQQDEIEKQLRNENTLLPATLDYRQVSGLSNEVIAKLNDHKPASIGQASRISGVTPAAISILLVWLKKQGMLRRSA

[2] = molecular target: the molecule itself; assay: SAXS + SEC-MALS; E. coli MnmE without nucleotides; SAXS in batch mode, 20 mM Hepes pH 7.5, 150 mM KCl, 5 mM MgCl2, 2 mM DTT; molecular weight from SAXS and SEC-MALS
[3] = molecular target: T1, MnmG from Escherichia coli, wild type; assay: ITC; 278 K; 20 mM Hepes pH 7.5, 150 mM NaCl, 5 mM MgCl2, 2 mM BME, 1 mM FAD; 15 uM in the cell, 300 uM in the syringe; titrated in both directions; one site model; apparent; settings: both partners purified
[4] = molecular target: T1, MnmG from Escherichia coli, wild type; assay: SAXS + SEC-MALS; E. coli MnmE and MnmG mixed equimolar without nucleotides, complex purified by gel filtration; SAXS with online HPLC; molecular weight from SAXS and SEC-MALS; settings: both partners purified
[5] = molecular target: T1, MnmG from Escherichia coli, wild type; assay: SEC; analytical gel filtration of 66.7 uM MnmE(E282A)-MnmG complex mixed with 100 uM GTP, aliquots between 0 min and 24 h; 20 mM Hepes pH 7.5, 150 mM KCl, 5 mM MgCl2, 2 mM DTT; settings: both partners purified
[6] = molecular target: T1, MnmG from Escherichia coli, wild type; assay: ITC; 278 K; 20 mM Hepes pH 7.5, 150 mM NaCl, 5 mM MgCl2, 2 mM BME, 1 mM FAD; variants: 700 uM MnmE in the syringe into 50 uM MnmG in the cell and vice versa; one site model; apparent; settings: both partners purified
[7] = molecular target: the molecule itself; assay: SEC-MALS + other: SAXS; A. aeolicus MnmG alone; SEC-MALS shows mainly monomer and a minor dimer peak; SAXS with online HPLC gel filtration on the dimer peak

B1: MnmE from Escherichia coli, wild type (enzyme, UniProt P25522 1-454, looked up)
chain: MSDNDTIVAQATPPGRGGVGILRISGFKAREVAETVLGKLPKPRYADYLPFKDADGSVLDQGIALWFPGPNSFTGEDVLELQGHGGPVILDLLLKRILTIPGLRIARPGEFSERAFLNDKLDLAQAEAIADLIDASSEQAARSALNSLQGAFSARVNHLVEALTHLRIYVEAAIDFPDEEIDFLSDGKIEAQLNDVIADLDAVRAEARQGSLLREGMKVVIAGRPNAGKSSLLNALAGREAAIVTDIAGTTRDVLREHIHIDGMPLHIIDTAGLREASDEVERIGIERAWQEIEQADRVLFMVDGTTTDAVDPAEIWPEFIARLPAKLPITVVRNKADITGETLGMSEVNGHALIRLSARTGEGVDVLRNHLKQSMGFDTNMEGGFLARRRHLQALEQAAEHLQQGKAQLLGAWAGELLAEELRLAQQNLSEITGEFTSDDLLGRIFSSFCIGK
notes: tRNA modification GTPase MnmE (formerly TrmE), Escherichia coli; open reading frame cloned in a pET20 vector; Homodimer of about 50-kDa subunits; Used nucleotide-free, with GDP-AlFx or with GppNHp depending on the experiment; also called TrmE; MnmE wt
**Q.** B1 was tested. Which “stoichiometry N” value [1] did it give?
**A.** Its value is 2.

**Q.** What about the “stoichiometry N” value [2] of the same binder?
**A.** The value was 2.

**Q.** What about the Kd [3] of the same binder?
**A.** The Kd was 3 µM and 7 µM.

**Q.** And the “stoichiometry N” value [3]?
**A.** The value was 0.5.

**Q.** What about the “stoichiometry N” value [4] of the same binder?
**A.** The value was 1.

B2: MnmE (E282A) (enzyme, Escherichia coli, UniProt P25522 1-454, looked up)
chain: MSDNDTIVAQATPPGRGGVGILRISGFKAREVAETVLGKLPKPRYADYLPFKDADGSVLDQGIALWFPGPNSFTGEDVLELQGHGGPVILDLLLKRILTIPGLRIARPGEFSERAFLNDKLDLAQAEAIADLIDASSEQAARSALNSLQGAFSARVNHLVEALTHLRIYVEAAIDFPDEEIDFLSDGKIEAQLNDVIADLDAVRAEARQGSLLREGMKVVIAGRPNAGKSSLLNALAGREAAIVTDIAGTTRDVLREHIHIDGMPLHIIDTAGLREASDEVARIGIERAWQEIEQADRVLFMVDGTTTDAVDPAEIWPEFIARLPAKLPITVVRNKADITGETLGMSEVNGHALIRLSARTGEGVDVLRNHLKQSMGFDTNMEGGFLARRRHLQALEQAAEHLQQGKAQLLGAWAGELLAEELRLAQQNLSEITGEFTSDDLLGRIFSSFCIGK
notes: MnmE, Escherichia coli, slowly GTP-hydrolysing point variant; Variant of m1; also called slow hydrolyzing mutant MnmE (E282A)
**Q.** Does B2 bind [5]?
**A.** Result: binds

B3: MnmE (Y169A, D175A and F176A) with additional S153A (enzyme, Escherichia coli, UniProt P25522 1-454, looked up)
chain: MSDNDTIVAQATPPGRGGVGILRISGFKAREVAETVLGKLPKPRYADYLPFKDADGSVLDQGIALWFPGPNSFTGEDVLELQGHGGPVILDLLLKRILTIPGLRIARPGEFSERAFLNDKLDLAQAEAIADLIDASSEQAARSALNSLQGAFAARVNHLVEALTHLRIAVEAAIAAPDEEIDFLSDGKIEAQLNDVIADLDAVRAEARQGSLLREGMKVVIAGRPNAGKSSLLNALAGREAAIVTDIAGTTRDVLREHIHIDGMPLHIIDTAGLREASDEVERIGIERAWQEIEQADRVLFMVDGTTTDAVDPAEIWPEFIARLPAKLPITVVRNKADITGETLGMSEVNGHALIRLSARTGEGVDVLRNHLKQSMGFDTNMEGGFLARRRHLQALEQAAEHLQQGKAQLLGAWAGELLAEELRLAQQNLSEITGEFTSDDLLGRIFSSFCIGK
notes: MnmE, Escherichia coli, point variant made by QuikChange mutagenesis of the pET20 construct; Variant of m6 with Ser153 also changed to alanine
**Q.** For B3, which “fold decrease in apparent affinity against wild type” value [6] is on record?
**A.** The value was at most 10 fold.

B4: MnmG from Aquifex aeolicus (enzyme, UniProt O66962 1-617, looked up)
chain: MAWVVDEFDVVVIGGGHAGIEAALAAARMGAKTAMFVLNADTIGQMSCNPAIGGIAKGIVVREIDALGGEMGKAIDQTGIQFKMLNTRKGKAVQSPRAQADKKRYREYMKKVCENQENLYIKQEEVVDIIVKNNQVVGVRTNLGVEYKTKAVVVTTGTFLNGVIYIGDKMIPGGRLGEPRSEGLSDFYRRFDFPLIRFKTGTPARLDKRTIDFSALEVAPGDDPPPKFSFWTEPVGSYWFPKGKEQVNCWITYTTPKTHEIIRKNLHRTALYGGLIKGIGPRYCPSIEDKIVKFPDKERHQIFLEPEGLDTIEIYPNGLSTSLPEEVQWEMYRSIPGLENVVLIRPAYAIEYDVVPPTELYPTLETKKIRGLFHAGNFNGTTGYEEAAGQGIVAGINAALRAFGKEPIYLRRDESYIGVMIDDLTTKGVTEPYRLFTSRSEYRLYIRQDNAILRLAKLGRELGLLSEEQYKLVKELEREIEKWKEFYKSERVSVAVGGDTRSYSVATLMTMNYTLDDVKEKFGYEVPQHPYVKEEVEIQLKYEPYIERERKLNEKLKKLEDTKIPPDIDYDKIPGLTKEAREKLKKFKPITVGQASRIDGITPAAITALLVYLGKLD
notes: tRNA uridine 5-carboxymethylaminomethyl modification enzyme MnmG, Aquifex aeolicus; open reading frame cloned in a pET28a vector; Mainly a monomer by SEC-MALS, with a minor dimer peak; SAXS was measured on the dimer peak; also called A. aeolicus MnmG; GidA
**Q.** Which “stoichiometry N” value [7] does the source give for B4 here?
**A.** Its value is 2.
